Here are results for 17 molecules from patent US20250270319A1 (Alector, published 2025).

To fix the notation:
B1: anti-CD33 antibody 6C7H5 (antibody, V domains shown)
VH: EVQLVESGGGLVQPGGSLRLSCAGSGFTFSNYCMNWVRQAPGKGLEWVAEIRLKSNNYVTNYAASVKGRFTISRDDSKNSVYLQMNSLKTEDTGVYYCTRDGYYVPFAYWGQGTLVTVSS
VL: QLVLTQSPSASASLGASVKLTCTLSSQHSTYTIEWYQQQPEKGPRYLMELKKDGSHSTGDGIPDRFSGSSSGAERYLTISSLQSEDEADYYCGVGDTIKEQFVYVFGGGTKLTVL
notes: Humanized 6C7; VH/VL only; also called parental humanized antibody
B2: anti-CD33 antibody 6C7H8 (antibody, IgG1, V domains shown)
VH: B1 VH with D101A
VL: B1 VL with D53E
notes: VH/VL only; also called 6C7H8 IgG1; parental antibody
B3: anti-CD33 antibody 6C7H1 (antibody, V domains shown)
VH: B1 VH with G24A, A49G, V81L, G94A, T99A
VL: B1 VL with Y36H, E49K
notes: Humanized 6C7; VH/VL only
B4: anti-CD33 antibody 6C7H7 (antibody, V domains shown)
VH: B1 VH with V81L, G94A
VL: B1 VL with V18A, L47V, L82I, Y91I, L112V
notes: Humanized 6C7; VH/VL only
B5: anti-CD33 antibody 6C7H6 (antibody, V domains shown)
VH: B1 VH with G24A, A49G, V81L, G94A, T99A
VL: B1 VL with V18A, L47V, L82I, Y91I, L112V
notes: Humanized 6C7; VH/VL only
B6: anti-CD33 antibody 6C7H4 (antibody, V domains shown)
VH: B1 VH with V81L, G94A
VL: B1 VL
notes: Humanized 6C7; VH/VL only
B7: anti-CD33 antibody 6C7H3 (antibody, V domains shown)
VH: B1 VH with G24A, A49G, V81L, G94A, T99A
VL: B1 VL
notes: Humanized 6C7; VH/VL only
B8: anti-CD33 antibody 6C7H2 (antibody, V domains shown)
VH: B1 VH
VL: B1 VL with Y36H, E49K
notes: Humanized 6C7; VH/VL only
B9: anti-CD33 antibody 6C7H13 (antibody, V domains shown)
VH: B1 VH with C33F, D101A
VL: B1 VL with D53E
notes: VH/VL only
B10: anti-CD33 antibody 6C7H19 (antibody, V domains shown)
VH: B1 VH with C33R, D101A
VL: B1 VL with D53E
notes: VH/VL only
B11: anti-CD33 antibody 6C7H22 (antibody, V domains shown)
VH: B1 VH with C33T, D101A
VL: B1 VL with D53E
notes: VH/VL only
B12: anti-CD33 antibody 6C7H30 (antibody, V domains shown)
VH: B1 VH with C33W, D101A
VL: B1 VL with D53E
notes: VH/VL only
B13: anti-CD33 antibody 6C7H27 (antibody, V domains shown)
VH: B1 VH with N31D, C33T, D101A
VL: B1 VL with D53E
notes: VH/VL only
B14: anti-CD33 antibody 6C7H10 (antibody, IgG1, V domains shown)
VH: B1 VH with G24A, N31E, C33A, A49G, D101A
VL: B1 VL with D53E
notes: VH/VL only; also called 6C7H10 IgG1
B15: 6C7H54 IgG2 (antibody)
heavy: EVQLVESGGGLVQPGGSLRLSCAGSGFTFSNYEMNWVRQAPGKGLEWVAEIRLKSNNYVTNYAASVKGRFTISRDDSKNSVYLQMNSLKTEDTGVYYCTRAGYYVPFAYWGQGTLVTVSSASTKGPSVFPLAPCSRSTSESTAALGCLVKDYFPEPVTVSWNSGALTSGVHTFPAVLQSSGLYSLSSVVTVPSSNFGTQTYTCNVDHKPSNTKVDKTVERKCCVECPPCPAPPVAGPSVFLFPPKPKDTLMISRTPEVTCVVVDVSHEDPEVQFNWYVDGVEVHNAKTKPREEQFNSTFRVVSVLTVVHQDWLNGKEYKCKVSNKGLPAPIEKTISKTKGQPREPQVYTLPPSREEMTKNQVSLTCLVKGFYPSDIAVEWESNGQPENNYKTTPPMLDSDGSFFLYSKLTVDKSRWQQGNVFSCSVMHEALHNHYTQKSLSLSPGK
light: QLMLTQSPSASASLGASVKLTCTLSSQHSTYTIEWYQQQPGKGPRYLMELKKEGSHSTGDGIPDRFSGSSSGAERYLTISSLQSEDEADYYCGVGHTIKEQFVYVFGGGTKLTVLGQPKAAPSVTLFPPSSEELQANKATLVCLISDFYPGAVTVAWKADSSPVKAGVETTTPSKQSNNKYAASSYLSLTPEQWKSHRSYSCQVTHEGSTVEKTVAPTECS
B16: 6C7H54 IgG1 PS (antibody)
chain 1: not shown
chain 2: B1 VL with V3M, E41G, D53E, D96H
B17: 6C7H10 IgG1 LALAPS (antibody)
chain 1: not shown
chain 2: B1 VL with D53E

Substitutions are numbered along the chain they refer to. Where only a bound is given, the exact number is not on record here.

T3 sequence (chain, as listed by the source limits assumed): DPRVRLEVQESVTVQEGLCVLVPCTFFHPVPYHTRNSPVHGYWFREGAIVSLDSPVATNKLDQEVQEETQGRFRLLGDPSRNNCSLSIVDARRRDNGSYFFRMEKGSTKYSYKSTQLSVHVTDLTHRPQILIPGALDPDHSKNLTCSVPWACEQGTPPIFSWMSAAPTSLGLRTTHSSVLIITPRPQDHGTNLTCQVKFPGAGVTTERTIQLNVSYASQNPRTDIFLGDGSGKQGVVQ
T2 sequence (P20138 18-259 limits assumed): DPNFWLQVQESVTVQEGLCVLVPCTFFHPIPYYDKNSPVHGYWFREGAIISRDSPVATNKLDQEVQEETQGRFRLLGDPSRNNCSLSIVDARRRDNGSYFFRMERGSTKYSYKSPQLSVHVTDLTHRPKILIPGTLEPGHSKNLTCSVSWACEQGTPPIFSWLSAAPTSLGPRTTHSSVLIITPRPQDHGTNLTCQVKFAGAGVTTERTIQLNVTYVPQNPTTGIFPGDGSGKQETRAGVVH

The target of the first assay is T1, human CD33 on primary human dendritic cells (human, UniProt P20138 18-364). Kind of assay: cell-based or functional assay.
T1 sequence (P20138 18-364): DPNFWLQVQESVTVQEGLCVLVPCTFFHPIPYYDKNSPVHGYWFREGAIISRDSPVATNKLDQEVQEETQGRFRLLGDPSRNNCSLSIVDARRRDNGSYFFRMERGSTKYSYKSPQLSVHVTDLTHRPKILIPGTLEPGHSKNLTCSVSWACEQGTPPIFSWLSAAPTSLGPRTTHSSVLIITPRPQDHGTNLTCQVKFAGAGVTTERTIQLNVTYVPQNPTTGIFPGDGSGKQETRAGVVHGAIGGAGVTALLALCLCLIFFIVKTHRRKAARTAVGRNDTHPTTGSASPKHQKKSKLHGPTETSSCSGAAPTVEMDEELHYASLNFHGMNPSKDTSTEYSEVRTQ
As for B1, the “Receptor downregulation, (EC50) (pM)” value is 42.4 pM.

Another assay addresses T2, recombinant human CD33 protein (Sino Biologicals) (human, UniProt P20138 18-259).
T2 construct: Bought protein; also called recombinant CD33
Kind of assay: ELISA, plate coated with recombinant CD33. (In general: In an ELISA, binding on a coated surface is turned into a signal by an enzyme label.)
As to B1, the EC50 – broadly, the concentration that produces a half-maximal response – stood at 160 pM.
As for B2, the half-maximal effective concentration (EC50) came to 210 pM.

Another assay has as its target T3, recombinant cynomolgus CD33 protein (NovoProtein) (cynomolgus).
T3 construct: Bought protein; also called cyno CD33
As to the kind of experiment: ELISA, plate coated with recombinant CD33.
Take B1: the EC50 was found to be 3840 pM, the “Relative maximal binding (cyno/human)” value came to 0.5 and the “Relative potency (human/cyno)” value was 0.04.
For B2, the “Relative maximal binding (cyno/human)” value was determined as 0.06.

A further assay deals with T1, human CD33 on primary human dendritic …. Kind of assay: flow cytometry on primary human dendritic cells, antibody dilutions, fluorescent anti-human IgG secondary. The method, then:
The 7 humanized anti-CD33 antibodies of 6C7 were evaluated for binding to primary dendritic cells by flow cytometry, and binding was compared to that of an anti-CD33 6C7 chimeric antibody that contained the variable heavy chain sequence and the variable light chain sequence of anti-CD33 antibody 6C7. Monocytes were isolated from blood from healthy human donors using the RosetteSep™ monocyte isolation antibody cocktail (StemCell Technologies). The isolated monocytes were differentiated into dendritic cells with 100 ng/mL GM-CSF and 100 ng/mL IL-4 (Peprotech). Dendritic cells were incubated with dilutions of the anti-CD33 antibodies for 30 minutes on ice in the dark, followed by a 30-minute incubation with a fluorescently-conjugated anti-human IgG secondary antibody. Cells were washed twice in FACS buffer (PBS+2% FBS, 2 mM EDTA), and flow cytometry was performed on a BD FACS Canto. Data were analyzed using FlowJo software (Ashland, OR).
For orientation: A flow cytometer gives signals particle by particle.
For B3, the binding result is “no binding (tested: about 1.2 ug/mL)”.
Still for that read-out and setting: as for B4, the entry is “binds”; as for B5, “binds”.
On to B6, for which the binding result is reported as “binds”.
The same measure, in the same setting: as for B7, the entry is “binds”.
For the molecule B8, the binding result was “no binding (tested: about 2 ug/mL)”.

The next assay shares this target. Kind of assay: flow cytometry, primary human dendritic cells, 2 ug/mL.
Turning to B9, the “binding relative to the parental antibodies” value is < 60%.
With B10, the “binding relative to the parental antibodies” value is < 60%.
For B11, the “binding relative to the parental antibodies” value is < 60%.
As to B12, the “binding relative to the parental antibodies” value was < 60%.
For the molecule B13, the “binding relative to the parental antibodies” value is < 60%.

The target is the same in a further assay. Kind of assay: cell-based or functional assay. This is another data set of the same source.
As to B1, the “Maximal reduction in CD33 (% remaining)” value was found to be 21 % remaining and the “Receptor downregulation, (EC50) (pM)” value was 42.4 pM.
Consider B14, for which the “Fold increase in potency compared to 6C7H5” value (from here on “Fold increase in potency”) came out at 0.1 fold; the “Maximal reduction in CD33 (% remaining)” value was 21.2 % remaining; the “Receptor downregulation, (EC50) (pM)” value was determined as 778 pM.
Regarding B9, the “Fold increase in potency” value stood at 0.01 fold and the “Receptor downregulation, (EC50) (pM)” value worked out at 3640 pM.
For the molecule B2, the “Fold increase in potency” value was 0.5 fold; the “Maximal reduction in CD33 (% remaining)” value was found to be 21.5 % remaining; the “Receptor downregulation, (EC50) (pM)” value was determined as 77.9 pM.
Take B11: the “Fold increase in potency” value was 0.03 fold and the “Receptor downregulation, (EC50) (pM)” value stood at 1230 pM.
For B13, the “Fold increase in potency” value was 0.03 fold and the “Receptor downregulation, (EC50) (pM)” value amounted to 1520 pM.

The next assay addresses T2, recombinant human CD33 protein (Sino …). Kind of assay: BLI (ForteBio), antibody on anti-human Fc sensor, CD33 10 nM. As to the method:
Affinity parameters of the antibody variants for human CD33 were measured by BioLayer Interferometry in a ForteBio assay according to standard techniques (Estep et al. (2013) MAbs 5(2): 270-8) and were compared to those of the parental antibody (antibody 6C7H8) and the parental humanized antibody (antibody 6C71H5). Briefly, the antibodies were captured on anti-human Fc Biosensors (Pall ForteBio). Recombinant human CD33 (10 nM, Sino Biologicals) was then bound to the captured anti-CD33 surface (200 s association time, 1200 s dissociation time). Local fitting was used to extract association and dissociation rate constants (kₐ and kd, respectively) for each antibody. Apparent affinity constants (KD) were calculated from the ratio kd/kₐ.
In general terms: BLI is a label-free optical method that tracks binding on a fibre tip over time.
For B1, the Kd – broadly, the equilibrium constant for the complex coming apart – came out at 436 pM; the koff – broadly, a measure of how fast the partners let go of each other – was 0.00012 s⁻¹; the association rate constant (kon) (usually the rate constant with which the complex forms) came out at 275000 M⁻¹ s⁻¹.
B14: the Kd stood at 561 pM, the off-rate (koff) turned out to be 0.000823 s⁻¹ and the kon came to 1.47e+06 M⁻¹ s⁻¹.
For B9, the Kd stood at 3880 pM, the koff is 0.0031 s⁻¹ and the kon was determined as 801000 M⁻¹ s⁻¹.
As for B10, the Kd is 238 pM, the dissociation rate constant (koff) amounted to 0.00114 s⁻¹ and the on-rate constant (kon) was 4.79e+06 M⁻¹ s⁻¹.
Taken in the same sequence, the figures for B2 were 722 pM, 0.000413 s⁻¹ and 572000 M⁻¹ s⁻¹.
With B11, the Kd was 467 pM, the koff worked out at 0.00113 s⁻¹ and the kon was 2.41e+06 M⁻¹ s⁻¹.
The corresponding values for B12 are 1270 pM, 0.0059 s⁻¹ and 4.65e+06 M⁻¹ s⁻¹.
Turning to B13, the dissociation constant (Kd) amounted to 2730 pM, the dissociation rate constant (koff) came out at 0.00365 s⁻¹ and the association rate constant (kon) turned out to be 1.34e+06 M⁻¹ s⁻¹.

Another assay addresses T1, human CD33 on primary human dendritic …. Kind of assay: cell-based or functional assay. The source holds these as a separate data set.
For B1, the “Receptor downregulation, (EC50) (pM)” value is 42.4 pM.
In the case of B2, the “Receptor downregulation, (EC50) (pM)” value stood at 77.9 pM.

For another assay the target is unchanged. As to the kind of experiment: cell-based or functional assay. This is another data set of the same source.
In the case of B15, the “Fold change in potency from IgG1” value stood at 1.2 fold; the “Maximal downregulation (% CD33 remaining)” value turned out to be 14.3 % CD33 remaining; the “Receptor downregulation, (pM, EC50)” value came out at 25.3 pM.
The corresponding values for B16 are 2.4 fold, 23.9 % CD33 remaining and 12.6 pM.
Take B17: the “Fold change in potency from IgG1” value came to 0.58 fold; the “Maximal downregulation (% CD33 remaining)” value turned out to be 62.3 % CD33 remaining; the “Receptor downregulation, (pM, EC50)” value amounted to 1350 pM.
Turning to B14, the “Maximal downregulation (% CD33 remaining)” value was determined as 21.2 % CD33 remaining and the “Receptor downregulation, (pM, EC50)” value came out at 778 pM.
The corresponding values for B2 are 21.5 % CD33 remaining and 77.9 pM.
